1 substance from paper PMC7948404 can be followed below.

The target in the assay is CysLTR2-V2(A)6 L129Q (GFP10 fusion) (UniProt Q9NS75). In words: FRET or BRET; BRET^2 saturation-binding in live HEK293T cells: 5 ng β-arrestin2-RLuc3 and 0-200 ng receptor-GFP10 DNA per well; unstimulated, or WT with 1 μM LTD4 for 10 min at RT; BRET^2 ratio against normalized GFP10 fluorescence, one-site fit with shared Bmax; constitutive activity from Bmax/Kd, normalized to the fully LTD4-stimulated WT receptor. On the technique in general: Bioluminescence resonance energy transfer reports proximity on the nanometre scale.
Chain of UniProt Q9NS75 (Q9NS75 other isoform, or with tags, fused parts or gaps L129Q | L129Q): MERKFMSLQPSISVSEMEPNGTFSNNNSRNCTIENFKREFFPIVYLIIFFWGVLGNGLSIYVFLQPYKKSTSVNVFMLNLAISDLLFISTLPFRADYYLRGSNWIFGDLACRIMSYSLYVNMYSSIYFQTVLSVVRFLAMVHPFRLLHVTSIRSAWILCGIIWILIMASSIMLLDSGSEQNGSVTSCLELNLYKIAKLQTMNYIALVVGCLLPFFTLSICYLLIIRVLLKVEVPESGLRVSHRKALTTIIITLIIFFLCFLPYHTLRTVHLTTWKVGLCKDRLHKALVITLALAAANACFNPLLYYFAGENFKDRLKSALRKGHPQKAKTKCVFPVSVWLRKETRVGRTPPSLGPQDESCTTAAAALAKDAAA

Consider “β-arrestin2-RLuc3 (from UniProt P32121 1-409) (natural protein)”, for which the constitutive activity of β-arrestin recruitment (% of LTD4-stimulated WT receptor) was 17.8%.
